Experimental data as given in patent US7582290.

Assays:
[1] = target: Elongation factor 2 (EF-2) with glycine to arginine mutation at codon 705, in DPL cells (derived from PER.C6) (human) (UniProt P13639); assay: cell-based or functional assay
[2] = target: Elongation factor 2 (EF-2), wild type, endogenous in PER.C6 and 293 cells (human) (UniProt P13639); assay: cell-based or functional assay

“Diphtheria toxin (DT) (from UniProt P00588 33-567) (enzyme)” showed a cell growth in the presence of DT (DPLR1 cells) [1] of 100 pM, a cell survival in the presence of DT (DPLR3 cells) [1] of 10 nM and a resistance of cells to DT (DPL cells) [1] of 1 nM. It also gave a cell death in the presence of DT (293 wt cells) [2] of 100 pM, a cell death in the presence of DT (PER.C6 cells) [2] of 100 pM and a cell death within 24 hrs in the presence of DT (PER.C6 and 293 cells) [2] of 10 pM.
